These results are taken from patent publication US20260109745A1.

The target in experiment [1] is MUC5AC (NPC-1 antigen, tumor variant) as expressed by human colorectal tumor cell lines (human) (UniProt P98088). Description: flow cytometry on Colo-205 colorectal tumor cells.
In experiment [2] the target is MUC5AC (NPC-1 antigen, tumor variant) as expressed on human pancreatic tumor cell lines (human) (UniProt P98088). Description: flow cytometry on CFPAC-1 pancreatic tumor cells.
For experiment [3], the target named is MUC5AC (NPC-1 antigen, tumor variant) as expressed by human colorectal tumor cell lines (human) (UniProt P98088). Nature of the experiment: flow cytometry on SW480 colorectal tumor cells.
For experiment [4] the target is unchanged. Nature of the experiment: flow cytometry on LS174T colorectal tumor cells.
Experiment [5] addresses MUC5AC (NPC-1 antigen, tumor variant) as expressed on human pancreatic tumor cell lines (human) (UniProt P98088). Description: immunofluorescence on fixed, permeabilized CFPAC-1 cells, 2 ug/ml.

Chain of MUC5AC (NPC-1 antigen, tumor variant) as expressed by human colorectal tumor cell lines (human) (P98088 other isoform, or with tags, fused parts or gaps mutant limits assumed): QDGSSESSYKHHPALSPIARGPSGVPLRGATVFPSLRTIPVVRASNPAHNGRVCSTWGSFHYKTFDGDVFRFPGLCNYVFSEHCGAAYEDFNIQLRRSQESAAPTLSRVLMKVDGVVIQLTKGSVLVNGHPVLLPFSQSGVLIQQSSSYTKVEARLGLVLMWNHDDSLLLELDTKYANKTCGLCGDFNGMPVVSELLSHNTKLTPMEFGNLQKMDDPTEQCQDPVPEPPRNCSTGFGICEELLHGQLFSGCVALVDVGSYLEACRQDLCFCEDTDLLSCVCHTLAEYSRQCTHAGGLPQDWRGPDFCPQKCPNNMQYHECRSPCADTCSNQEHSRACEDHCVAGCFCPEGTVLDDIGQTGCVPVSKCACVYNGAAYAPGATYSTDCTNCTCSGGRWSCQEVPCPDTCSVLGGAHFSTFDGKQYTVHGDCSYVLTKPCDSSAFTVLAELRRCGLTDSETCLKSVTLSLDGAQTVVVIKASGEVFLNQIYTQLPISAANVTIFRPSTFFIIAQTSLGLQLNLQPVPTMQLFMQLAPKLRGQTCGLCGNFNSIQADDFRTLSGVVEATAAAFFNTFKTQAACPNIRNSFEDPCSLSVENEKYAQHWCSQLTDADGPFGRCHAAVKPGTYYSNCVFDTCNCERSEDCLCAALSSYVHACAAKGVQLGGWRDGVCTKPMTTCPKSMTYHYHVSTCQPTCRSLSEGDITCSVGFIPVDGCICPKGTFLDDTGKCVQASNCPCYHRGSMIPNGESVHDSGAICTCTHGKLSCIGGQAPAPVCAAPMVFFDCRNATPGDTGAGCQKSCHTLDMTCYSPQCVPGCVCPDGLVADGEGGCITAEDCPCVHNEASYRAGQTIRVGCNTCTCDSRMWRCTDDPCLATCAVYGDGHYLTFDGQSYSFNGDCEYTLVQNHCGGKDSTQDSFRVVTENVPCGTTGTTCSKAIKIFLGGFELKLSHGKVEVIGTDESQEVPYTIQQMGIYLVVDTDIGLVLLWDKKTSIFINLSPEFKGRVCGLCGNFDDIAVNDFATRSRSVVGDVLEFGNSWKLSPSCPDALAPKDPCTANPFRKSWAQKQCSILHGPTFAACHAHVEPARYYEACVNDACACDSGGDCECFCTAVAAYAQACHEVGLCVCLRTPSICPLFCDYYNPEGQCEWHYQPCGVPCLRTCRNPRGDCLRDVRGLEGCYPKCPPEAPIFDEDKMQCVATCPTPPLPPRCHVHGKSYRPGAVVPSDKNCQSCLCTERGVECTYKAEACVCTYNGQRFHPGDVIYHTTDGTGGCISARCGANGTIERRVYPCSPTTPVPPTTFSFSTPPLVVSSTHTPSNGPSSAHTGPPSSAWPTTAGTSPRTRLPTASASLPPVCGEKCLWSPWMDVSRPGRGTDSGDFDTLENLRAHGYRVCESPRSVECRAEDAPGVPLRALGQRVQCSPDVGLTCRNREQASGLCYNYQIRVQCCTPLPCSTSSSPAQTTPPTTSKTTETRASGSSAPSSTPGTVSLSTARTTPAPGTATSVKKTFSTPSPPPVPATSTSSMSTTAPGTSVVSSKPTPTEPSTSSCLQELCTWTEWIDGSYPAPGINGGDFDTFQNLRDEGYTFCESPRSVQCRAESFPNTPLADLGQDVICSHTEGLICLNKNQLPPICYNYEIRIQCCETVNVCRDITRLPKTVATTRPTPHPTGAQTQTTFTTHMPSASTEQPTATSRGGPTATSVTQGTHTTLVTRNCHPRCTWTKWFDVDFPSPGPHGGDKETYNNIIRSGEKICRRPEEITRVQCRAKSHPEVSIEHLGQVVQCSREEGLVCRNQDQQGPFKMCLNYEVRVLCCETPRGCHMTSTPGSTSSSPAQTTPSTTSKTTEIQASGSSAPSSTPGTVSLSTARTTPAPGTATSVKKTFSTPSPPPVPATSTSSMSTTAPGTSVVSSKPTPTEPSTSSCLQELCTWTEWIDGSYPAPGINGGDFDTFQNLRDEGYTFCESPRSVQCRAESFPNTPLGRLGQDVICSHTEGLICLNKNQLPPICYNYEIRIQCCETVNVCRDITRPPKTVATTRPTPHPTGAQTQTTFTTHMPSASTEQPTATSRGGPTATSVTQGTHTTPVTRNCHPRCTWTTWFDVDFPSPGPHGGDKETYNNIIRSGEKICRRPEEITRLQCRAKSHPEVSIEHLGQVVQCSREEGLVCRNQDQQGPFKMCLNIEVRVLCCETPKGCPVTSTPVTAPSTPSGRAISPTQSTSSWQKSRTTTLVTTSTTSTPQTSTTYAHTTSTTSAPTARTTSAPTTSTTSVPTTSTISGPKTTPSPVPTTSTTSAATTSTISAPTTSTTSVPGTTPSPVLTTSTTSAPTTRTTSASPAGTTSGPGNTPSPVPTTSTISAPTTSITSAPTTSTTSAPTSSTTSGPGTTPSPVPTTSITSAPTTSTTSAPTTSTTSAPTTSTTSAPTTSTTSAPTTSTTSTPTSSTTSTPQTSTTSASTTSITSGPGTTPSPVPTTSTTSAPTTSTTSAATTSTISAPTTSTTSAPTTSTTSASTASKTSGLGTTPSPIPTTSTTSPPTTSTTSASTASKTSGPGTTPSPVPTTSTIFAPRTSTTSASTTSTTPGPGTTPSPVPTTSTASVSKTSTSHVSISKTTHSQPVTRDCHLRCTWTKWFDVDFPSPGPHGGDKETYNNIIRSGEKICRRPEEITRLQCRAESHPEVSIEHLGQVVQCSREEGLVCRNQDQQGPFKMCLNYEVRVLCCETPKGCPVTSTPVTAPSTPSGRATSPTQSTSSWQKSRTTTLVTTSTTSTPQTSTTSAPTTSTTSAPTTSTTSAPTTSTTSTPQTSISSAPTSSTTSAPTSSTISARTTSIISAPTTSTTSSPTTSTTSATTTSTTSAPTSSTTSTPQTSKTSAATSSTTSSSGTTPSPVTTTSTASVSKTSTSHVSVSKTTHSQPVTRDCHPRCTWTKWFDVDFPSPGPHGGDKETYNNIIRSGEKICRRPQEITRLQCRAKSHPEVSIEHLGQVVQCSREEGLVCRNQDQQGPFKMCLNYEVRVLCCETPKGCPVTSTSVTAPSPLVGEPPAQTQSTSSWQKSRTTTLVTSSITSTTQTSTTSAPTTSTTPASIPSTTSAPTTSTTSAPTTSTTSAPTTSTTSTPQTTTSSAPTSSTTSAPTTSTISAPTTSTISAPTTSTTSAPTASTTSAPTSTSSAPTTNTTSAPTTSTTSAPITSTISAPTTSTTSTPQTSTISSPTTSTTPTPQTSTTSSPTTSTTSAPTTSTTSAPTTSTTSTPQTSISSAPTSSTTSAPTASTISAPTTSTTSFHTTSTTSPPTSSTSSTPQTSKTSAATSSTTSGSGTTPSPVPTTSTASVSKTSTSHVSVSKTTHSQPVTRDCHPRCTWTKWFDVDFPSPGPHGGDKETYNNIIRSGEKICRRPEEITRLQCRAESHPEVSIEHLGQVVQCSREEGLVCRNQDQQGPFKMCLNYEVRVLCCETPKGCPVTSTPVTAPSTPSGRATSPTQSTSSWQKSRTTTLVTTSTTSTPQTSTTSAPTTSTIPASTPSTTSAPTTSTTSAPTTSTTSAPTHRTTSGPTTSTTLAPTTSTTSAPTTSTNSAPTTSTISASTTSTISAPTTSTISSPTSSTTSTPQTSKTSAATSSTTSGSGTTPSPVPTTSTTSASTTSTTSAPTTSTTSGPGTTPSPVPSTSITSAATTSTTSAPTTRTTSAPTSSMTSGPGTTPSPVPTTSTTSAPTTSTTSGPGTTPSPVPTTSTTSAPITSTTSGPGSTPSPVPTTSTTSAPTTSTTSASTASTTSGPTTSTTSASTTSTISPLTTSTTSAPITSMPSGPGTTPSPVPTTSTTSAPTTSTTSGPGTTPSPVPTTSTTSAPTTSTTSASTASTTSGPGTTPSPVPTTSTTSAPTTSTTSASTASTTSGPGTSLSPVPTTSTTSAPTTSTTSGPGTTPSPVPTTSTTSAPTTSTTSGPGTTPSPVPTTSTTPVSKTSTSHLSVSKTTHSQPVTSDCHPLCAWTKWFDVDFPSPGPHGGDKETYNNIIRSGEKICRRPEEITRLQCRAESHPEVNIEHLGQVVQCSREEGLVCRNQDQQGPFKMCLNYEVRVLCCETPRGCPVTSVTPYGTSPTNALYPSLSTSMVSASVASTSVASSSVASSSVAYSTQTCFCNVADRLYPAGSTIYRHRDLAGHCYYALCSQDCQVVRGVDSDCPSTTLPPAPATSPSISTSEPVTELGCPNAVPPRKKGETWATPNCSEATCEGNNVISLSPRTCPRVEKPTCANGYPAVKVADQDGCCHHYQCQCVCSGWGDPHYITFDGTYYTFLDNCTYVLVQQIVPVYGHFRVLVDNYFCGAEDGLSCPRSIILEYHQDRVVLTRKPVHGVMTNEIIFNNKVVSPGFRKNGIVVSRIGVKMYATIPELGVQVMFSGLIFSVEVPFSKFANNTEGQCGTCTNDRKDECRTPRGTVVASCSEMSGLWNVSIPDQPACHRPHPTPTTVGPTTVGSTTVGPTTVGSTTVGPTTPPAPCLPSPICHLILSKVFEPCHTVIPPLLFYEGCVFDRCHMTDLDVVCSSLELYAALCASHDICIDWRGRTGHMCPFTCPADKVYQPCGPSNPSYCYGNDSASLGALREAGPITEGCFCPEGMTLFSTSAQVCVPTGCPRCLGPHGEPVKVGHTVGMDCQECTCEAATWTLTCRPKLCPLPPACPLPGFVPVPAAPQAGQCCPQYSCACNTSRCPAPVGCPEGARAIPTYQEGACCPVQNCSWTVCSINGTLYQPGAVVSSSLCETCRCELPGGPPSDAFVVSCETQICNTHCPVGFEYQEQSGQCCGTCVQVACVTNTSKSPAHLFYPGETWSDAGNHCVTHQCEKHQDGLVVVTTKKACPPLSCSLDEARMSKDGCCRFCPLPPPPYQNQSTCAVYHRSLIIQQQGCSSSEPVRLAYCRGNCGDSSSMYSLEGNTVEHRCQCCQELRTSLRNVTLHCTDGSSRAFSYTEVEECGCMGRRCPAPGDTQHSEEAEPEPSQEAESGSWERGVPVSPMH
Chain of MUC5AC (NPC-1 antigen, tumor variant) as expressed on human pancreatic tumor cell lines (human) (P98088 other isoform, or with tags, fused parts or gaps mutant limits assumed): as above

Regarding Isotype control antibody, the % Cells Stained stood at 2.33% in experiment [1], 1.79% in experiment [2], 3.38% in experiment [3] and 3.85% in experiment [4].

Substance “Polyclonal rabbit anti-MUC5AC antibody (H-160) (Santa Cruz Biotechnology Inc.)” showed a % of cells stained in experiment [5] of 100%.
